Assay results: publication PMC12120020

Molecular target: XRCC4 (X-ray repair cross-complementing protein 4) (UniProt Q13426)
Assay: co-IP with anti-Flag M2 beads
Conditions: reference: Flag-AATF wild type, IR; sites S189

binding against the reference: stronger
Substance: AATF (apoptosis antagonizing transcription factor) (from UniProt Q9NY61) Flag-AATF S189A, IR
